“And” between values parts separate entries of the source, which are not always exact repeats. Identical values can stand only once.
Legend:
human C4b (human) = molecular target: T1, human C4b (human) (UniProt P0C0L4)
T1 sequence: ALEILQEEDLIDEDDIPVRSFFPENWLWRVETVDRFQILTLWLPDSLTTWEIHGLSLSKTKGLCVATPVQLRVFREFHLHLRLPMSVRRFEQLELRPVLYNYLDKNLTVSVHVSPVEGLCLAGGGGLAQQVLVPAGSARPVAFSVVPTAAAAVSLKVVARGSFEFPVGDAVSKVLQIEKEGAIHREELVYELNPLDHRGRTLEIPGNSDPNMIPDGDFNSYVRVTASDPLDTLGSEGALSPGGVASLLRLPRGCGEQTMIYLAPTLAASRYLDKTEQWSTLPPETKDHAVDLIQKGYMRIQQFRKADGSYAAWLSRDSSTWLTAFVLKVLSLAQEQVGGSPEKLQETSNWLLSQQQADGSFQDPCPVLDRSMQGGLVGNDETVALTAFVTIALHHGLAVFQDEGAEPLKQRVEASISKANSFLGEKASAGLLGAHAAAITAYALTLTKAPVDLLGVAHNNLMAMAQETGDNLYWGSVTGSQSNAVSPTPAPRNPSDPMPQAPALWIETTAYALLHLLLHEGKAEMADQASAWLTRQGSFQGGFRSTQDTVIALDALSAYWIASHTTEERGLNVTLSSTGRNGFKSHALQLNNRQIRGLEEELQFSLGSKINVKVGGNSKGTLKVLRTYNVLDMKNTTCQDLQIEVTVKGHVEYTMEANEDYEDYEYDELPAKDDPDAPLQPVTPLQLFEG

[1] = molecular target: soluble human C3b (human) (UniProt P01024)

Sequence of CFI-HSA fusion WT; GGSSGG (SEQ ID NO: 6); CR1(ccp15); fH(ccp2); fH(ccp3); fH(ccp4) (P17927 other isoform, or with tags, fused parts or gaps limits assumed): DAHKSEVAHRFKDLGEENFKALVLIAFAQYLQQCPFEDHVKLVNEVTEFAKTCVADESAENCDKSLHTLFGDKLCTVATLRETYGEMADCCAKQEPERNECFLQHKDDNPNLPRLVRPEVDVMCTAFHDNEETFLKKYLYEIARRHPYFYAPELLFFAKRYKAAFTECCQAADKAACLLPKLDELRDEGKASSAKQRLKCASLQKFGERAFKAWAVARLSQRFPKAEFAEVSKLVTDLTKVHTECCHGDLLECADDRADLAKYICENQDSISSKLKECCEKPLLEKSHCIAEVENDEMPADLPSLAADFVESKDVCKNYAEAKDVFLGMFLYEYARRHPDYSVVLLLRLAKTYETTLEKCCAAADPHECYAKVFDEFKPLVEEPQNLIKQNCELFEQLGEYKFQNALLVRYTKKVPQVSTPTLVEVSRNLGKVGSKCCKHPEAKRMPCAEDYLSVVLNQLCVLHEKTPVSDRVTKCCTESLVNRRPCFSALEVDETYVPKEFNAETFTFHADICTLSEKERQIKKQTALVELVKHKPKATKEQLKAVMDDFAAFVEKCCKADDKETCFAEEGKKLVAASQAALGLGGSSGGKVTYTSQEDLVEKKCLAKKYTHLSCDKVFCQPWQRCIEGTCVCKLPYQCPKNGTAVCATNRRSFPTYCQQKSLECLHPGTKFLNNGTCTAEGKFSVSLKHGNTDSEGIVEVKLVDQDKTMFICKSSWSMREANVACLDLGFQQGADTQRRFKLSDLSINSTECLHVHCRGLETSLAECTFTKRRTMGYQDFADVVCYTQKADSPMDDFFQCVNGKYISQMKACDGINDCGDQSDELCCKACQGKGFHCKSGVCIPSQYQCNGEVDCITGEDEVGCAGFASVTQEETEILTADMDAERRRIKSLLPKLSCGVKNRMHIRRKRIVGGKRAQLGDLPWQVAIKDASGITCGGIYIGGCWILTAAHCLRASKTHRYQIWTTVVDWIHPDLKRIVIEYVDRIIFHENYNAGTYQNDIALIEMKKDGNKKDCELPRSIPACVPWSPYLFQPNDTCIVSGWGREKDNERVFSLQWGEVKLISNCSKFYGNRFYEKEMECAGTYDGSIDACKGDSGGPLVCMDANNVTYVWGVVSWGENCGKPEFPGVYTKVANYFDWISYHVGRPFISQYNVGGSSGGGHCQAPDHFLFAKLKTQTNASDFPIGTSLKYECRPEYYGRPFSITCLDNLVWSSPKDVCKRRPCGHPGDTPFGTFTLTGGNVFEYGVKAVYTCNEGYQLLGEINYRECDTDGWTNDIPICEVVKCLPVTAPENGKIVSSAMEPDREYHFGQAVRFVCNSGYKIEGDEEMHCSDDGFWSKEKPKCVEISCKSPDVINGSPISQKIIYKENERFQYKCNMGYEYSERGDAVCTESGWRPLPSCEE

Substance | C4b Screen Ref Fold (fold of CFI-HSA wild type) (human C4b (human)) | iC3b Screen Ref Fold (fold of CFI-HSA wild type) [1] | C4b Screen Ref Fold (fold of reference) (human C4b (human)) | iC3b Screen Ref Fold (fold of reference) [1]
CFI-HSA D506Q (enzyme) | 0.47 | -0.02 | – | –
CFI-HSA variant N531R (enzyme) | – | – | 0.58 | 0.75
CFI-HSA D506K (enzyme) | 0.3 | 0.03 | – | –
CFI-HSA variant I345G (enzyme) | – | – | 0.16 | -0.01
CFI-HSA K534E (enzyme) | 0.82 | 1.19 | – | –
CFI-HSA D506Y (enzyme) | 0.02 | -0.05 | – | –
CFI-HSA D425N (enzyme) | 1.54 | 1.66 | – | –
CFI-HSA variant L386G (enzyme) | 0.07 | 0.54 | – | –
CFI-HSA E457G; F464Y (enzyme) | 5.55 | 1.31 | – | –
CFI-HSA K534R (enzyme) | 1.81 | 1.44 | – | –
CFI-HSA N531G; P535A; S507A; GGSSGG (SEQ ID NO: 6); CCP_1-4 (enzyme) | 0.2 | -0.02 | – | –
CFI-HSA D425T (enzyme) | 2.05 | 2.16 | – | –
CFI-HSA variant E461W (enzyme) | – | – | 0.8 | 0.67
CFI-HSA variant K458A (enzyme) | – | – | 0.11 | 0.71
CFI-HSA N531G; E457G; R462K; F464Y (enzyme) | 6.38 | 1.32 | – | –
CFI-HSA D506T (enzyme) | 0.39 | 0.04 | – | –
CFI-HSA E457G; R462K; F464Y (enzyme) | 4.82 | 0.96 | – | –
CFI-HSA variant T377G; S507A (enzyme) | 0.05 | -0.01 | – | –

Substance | C4b Screen Ref Fold (fold of CFI-HSA wild type) (human C4b (human)) | iC3b Screen Ref Fold (fold of CFI-HSA wild type) [1] | C4b Screen Ref Fold (fold of reference) (human C4b (human)) | iC3b Screen Ref Fold (fold of reference) [1]
CFI-HSA Y408L; E457G; E461Q; F464Y (enzyme) | 5.88 | 1.45 | – | –
CFI-HSA K504E; Y408L; N531G (enzyme) | 3.27 | 0.15 | – | –
CFI-HSA variant N531W (enzyme) | – | – | 0.95 | 0.29
CFI-HSA variant W381A; ΔP384 (enzyme) | – | – | -0.05 | 0.01
CFI-HSA variant G469L; R456N; K458A (enzyme) | – | – | -0.07 | 0
CFI-HSA H362T; R456I; S343K (enzyme) | 0.18 | 0 | – | –
CFI-HSA variant I382G (enzyme) | 0.33 | -0.03 | – | –
CFI-HSA variant F537K; S507A (enzyme) | -0.09 | -0.04 | – | –
CFI-HSA variant R557A; N531M; Y403F; K504Y; E457N; E461L (enzyme) | 2.29 | 0.28 | – | –
CFI-HSA variant N422K; E457G; E461Q; N531G (enzyme) | 3.52 | 2.02 | – | –
CFI-HSA variant R388G (enzyme) | 0.18 | 0.22 | – | –
CFI-HSA variant D425K; S507A (enzyme) | 0.01 | -0.03 | – | –
CFI-HSA variant Y408M; K504R (enzyme) | 0.09 | 0.83 | – | –
CFI-HSA variant N531E (enzyme) | – | – | 3.96 | 0.82
CFI-HSA variant I317D-R318D-R319D-K320D-R321K; Y408L; N531G; E457G; E461Q; R462K; F464Y (enzyme) | – | – | -0.02 | 0.01
CFI-HSA D425Q (enzyme) | 1.83 | 1.87 | – | –
CFI-HSA variant K340G (enzyme) | – | – | 0.15 | -0.01

Further lines, results first:

C4b Screen Ref Fold (fold of CFI-HSA wild type) (human C4b (human)) | iC3b Screen Ref Fold (fold of CFI-HSA wild type) [1] | C4b Screen Ref Fold (fold of reference) (human C4b (human)) | iC3b Screen Ref Fold (fold of reference) [1] | Substance
6.36 | 1.18 | – | – | CFI-HSA Y408L; E457G; E461Q (enzyme)
– | – | 1.44 | -0.01 | CFI-HSA fusion WT; GGSSGG (SEQ ID NO: 6); CR1(ccp15); fH(ccp2); fH(ccp3); fH(ccp4) (from UniProt P17927) (enzyme)
0.01 | -0.01 | – | – | CFI-HSA E457G; S507A (enzyme)
0.97 | 0.91 | – | – | CFI-HSA K534F (enzyme)
0.11 | 1.06 | – | – | CFI-HSA variant F537K; K504R (enzyme)
0.18 | -0.04 | – | – | CFI-HSA D506P (enzyme)
0.17 | 0.13 | – | – | CFI-HSA K534G (enzyme)
– | – | 3.03 | 0.98 | CFI-HSA variant G344R; Y408L; N531G (enzyme)
3.13 | 0.24 | – | – | CFI-HSA variant R557A; N531M; Y403F; K504Y; E457N; E461T (enzyme)
1.75 | 1.52 | – | – | CFI-HSA D425E (enzyme)
– | – | 1.27 | 1.31 | CFI-HSA variant I560V (enzyme)
0.49 | 1.84 | – | – | CFI-HSA variant D425K; Y408M; E530F; K504R; P558S (enzyme)
3.76 | 1.13 | – | – | CFI-HSA Y408L; N531G; R462K (enzyme)
– | – | 0.63 | 1.24 | CFI-HSA variant P558S; F559L; I560V; Y563H (enzyme)
0.07 | 0.04 | – | – | CFI-HSA variant D425K; Y408M; E530F; F537K; P558S (enzyme)
– | – | 0.11 | 0.06 | CFI-HSA variant A405S; G406A; Y408L; Q409D (enzyme)
0.46 | 1.43 | – | – | CFI-HSA T407G; Y408L; N531G (enzyme)
4.67 | 1.09 | – | – | CFI-HSA Y408L; E530R; N531G (enzyme)
0.48 | 1.56 | – | – | CFI-HSA F246Y (enzyme)
– | – | 0.08 | 0 | CFI-HSA variant Y372G (enzyme)
0.42 | 1.45 | – | – | CFI-HSA F208Y; F246Y; F480Y; F537Y (enzyme)
0.12 | 2.05 | – | – | CFI-HSA variant D425K; K504R (enzyme)
0.11 | 0.01 | – | – | CFI-HSA variant D425K; Y408M; E530F; F537K; K504R; P558S (enzyme)
0.15 | 0.02 | – | – | CFI-HSA variant D425K; Y408M; E530F; F537K; K504R (enzyme)
0.37 | 0.23 | – | – | CFI-HSA variant K387G (enzyme)
0.34 and 0.16 | 1.4 and 1.38 | – | – | CFI-HSA variant E530F; P558S (enzyme)
-0.05 | -0.04 | – | – | CFI-HSA variant E457G; E461Q; N531G; S507A (enzyme)
– | – | 1.44 | 1.37 | CFI-HSA variant E461A (enzyme)
3.25 | 1.98 | – | – | CFI-HSA variant D425K; E457G; E461Q; N531G; P558S (enzyme)
-0.01 | 0.71 | – | – | CFI-HSA variant Y393G (enzyme)

Reference: patent US20230038638A1, “COMPLEMENT FACTOR I-RELATED COMPOSITIONS AND METHODS” (published 2023)
